Laboratory results from patent publication US20230383007A1 (BIOSION, published 2023).

T1: human TROP2-his protein (human, UniProt P09758 27-274)
T1 construct: also called biotin labeled human TROP2-his protein
T1 sequence: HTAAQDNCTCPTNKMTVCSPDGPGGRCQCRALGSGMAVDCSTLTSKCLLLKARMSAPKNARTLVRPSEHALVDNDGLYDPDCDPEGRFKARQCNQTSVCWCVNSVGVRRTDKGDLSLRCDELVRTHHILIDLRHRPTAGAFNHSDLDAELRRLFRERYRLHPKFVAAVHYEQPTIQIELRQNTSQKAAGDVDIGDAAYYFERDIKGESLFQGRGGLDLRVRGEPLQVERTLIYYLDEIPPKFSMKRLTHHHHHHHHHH

T2: cynomolgus TROP2-his protein (cynomolgus, UniProt P09758 27-272 (human entry), limits assumed)
T2 construct: also called Cyno TROP2-his; Cynomolgus monkey TROP2-his protein
T2 chain: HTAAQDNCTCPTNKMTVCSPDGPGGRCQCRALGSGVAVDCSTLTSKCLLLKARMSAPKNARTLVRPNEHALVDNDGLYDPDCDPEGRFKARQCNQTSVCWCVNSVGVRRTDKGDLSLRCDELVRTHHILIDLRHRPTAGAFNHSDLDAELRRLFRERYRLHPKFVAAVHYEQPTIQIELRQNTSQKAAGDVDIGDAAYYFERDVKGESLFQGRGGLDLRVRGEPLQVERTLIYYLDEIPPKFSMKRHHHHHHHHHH

T3: full length human TROP2 on 293F-TROP2 cells (clone ID #3A8) (human, UniProt P09758 27-323)
T3 sequence: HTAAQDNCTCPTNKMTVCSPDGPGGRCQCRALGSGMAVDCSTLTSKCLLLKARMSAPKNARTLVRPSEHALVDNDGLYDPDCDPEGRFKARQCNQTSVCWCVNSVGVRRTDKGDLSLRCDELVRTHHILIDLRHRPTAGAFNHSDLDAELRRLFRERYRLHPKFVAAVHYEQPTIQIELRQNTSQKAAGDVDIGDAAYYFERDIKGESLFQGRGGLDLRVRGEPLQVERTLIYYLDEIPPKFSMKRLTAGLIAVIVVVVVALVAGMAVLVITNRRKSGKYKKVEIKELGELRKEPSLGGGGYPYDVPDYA


How the values were obtained:
[1] = target: T1, human TROP2-his protein; assay: indirect ELISA, plate coated with 1 ug/ml TROP2-his; bacterial culture supernatant
Experimental: (§1) ELISA plates were coated with 100 μl 1 μg/ml human TROP2-his protein (in house made with SEQ ID NO: 16), or 1 μg/ml cynomolgus TROP2-his protein (in house made with SEQ ID NO: 19) in carbonate/bicarbonate buffer (pH 9.6) overnight at 4° C., washed once with wash buffer (PBS+0.05% v/v Tween-20, PBST) and then blocked with 200 μl/well blocking buffer (5% w/v non-fatty milk in PBST) for 2 hours at 37° C. Plates were washed 4 times, and respectively incubated with 100 μl bacterial culture supernatant, and sacituzumab (used as the benchmark, also referred to as BM or BM1 hereinafter, in house made with heavy chain and light chain amino acid sequences set forth in SEQ ID NOs: 17 and 18) in 5% w/v non-fatty milk in PBST at 200 ng/ml, for 40 minutes at 37° C. The plates were washed 4 times, and incubated with THE™ HA Tag Antibody [HRP], mAb, Mouse Antibody (1:5000 dilution in PBST, GenScript, Cat #A01296, 100 μl/well, for plates with bacterial culture supernatans of the disclosure) or Peroxidase AffiniPure F(ab′)₂ Fragment Goat Anti-Human IgG, Fey fragment specific (Jackson Immunoresearch, Cat #109-036-098, for plates with the benchmark), for 40 minutes at 37° C. After a final wash, plates were incubated with 100 μl/well ELISA substrate TMB (Innoreagents, Cat #TMB-S-002) at room temperature. The reaction was stopped in 3-10 minutes with 50 μl/well 1M H₂SO₄, and the absorbance of each well was read on a microplate reader using dual wavelength mode with 450 nm for TMB and 630 nm as the reference wavelength. When the OD of a sample well was 2 times higher than the OD of the blank well, the sample can be determined as positive.

[2] = target: T2, cynomolgus TROP2-his protein; assay: as above
Experimental: as §1

[3] = target: T1, human TROP2-his protein; assay: indirect ELISA, plate coated with human TROP2-his; unit taken from the x axis (Con of mAb, ng/mL)
Experimental: The single domain antibodies of the disclosure were tested in the indirect ELISA for their cross-reaction with cynomolgus TROP2 protein. Briefly, 96-well micro plates were coated with 100 μl 2 μg/ml human TROP2-his protein (prepared in-house with SEQ ID NO: 16) in carbonate/bicarbonate buffer (pH 9.6) overnight at 4° C. ELISA plates were washed once with wash buffer (PBS+0.05% v/v Tween-20, PBST) and then blocked with 200 μl/well blocking buffer (5% w/v non-fatty milk in PBST) for 2 hours at 37° C. Plates were washed 4 times and incubated with 100 μl/well serially diluted anti-TROP2 antibodies of the disclosure or controls (starting at 66.7 nM, 5-fold serial dilution in 2.5% w/v non-fatty milk in PBST) for 40 minutes at 37° C. ELISA plates were washed 4 times again and incubated with Peroxidase AffiniPure F(ab′)₂ Fragment Goat Anti-Human IgG, Fey fragment specific (Jackson Immuno Research, Cat #109-036-098, 1:5000 dilution in PBST buffer, 100 μl/well) for 40 minutes at 37° C. After a final wash, plates were incubated with 100 μl/well TMB (Innoreagents) at room temperature. The reaction was stopped 3-10 minutes later at room temperature with 50 μl/well 1M H₂SO₄, and the absorbance of each well was read on a microplate reader using dual wavelength mode with 450 nm for TMB and 630 nm as the reference wavelength. The OD (450-630) values were plotted against antibody concentration. Data was analyzed using Graphpad Prism software and EC₅₀ values were reported.

[4] = target: T3, full length human TROP2 on 293F-TROP2 …; assay: cell based binding FACS (MFI) on 293F-TROP2 cells expressing human TROP2; unit taken from the x axis (nM)
Experimental: Cells were washed twice with FACS buffer, and added with 100 μL/well R-Phycoerythrin AffiniPure Goat Anti-Human IgG, Fey fragment specific (1:1000 dilution in FACS buffer, Jackson Immunoresearch, Cat #109-115-098). Following an incubation of 40 minutes at 4° C. in dark, cells were washed twice and re-suspended in FACS buffer. Fluorescence was measured using a Becton Dickinson FACS Canto II-HTS equipment, and the MFI (mean fluorescence intensity) was plotted against antibody concentration. Data was analyzed using Graphpad Prism software and EC₅₀ values were reported.

Binder	Indirect ELISA OD (450-630) [1]	Indirect ELISA OD (450-630) [2]	EC50 [3]	EC50 [4]
single domain antibody 01-9F (VHH) VHH: QVQLVESGGGSVQAGGSLRLSCVVSGLPYERYCVAWFRQGPGKEREGVARILSDGTTSYSDSVKGRFTISKDNAKNTLYLQMNSLKSEDTATYYCAAEAFRPFTPSDGDCTTVLGIDYWGKGTPVTVSS	0.97 OD (450-630)	0.59 OD (450-630)	0.0208 µg/mL	0.53 nM
sacituzumab (benchmark, an analog of sacituzumab, in house made) (antibody, human IgG1, kappa, V domains shown, also called BM; BM1) VH: SVQLQQSGSELKKPGASVKVSCKASGYTFTNYGMNWVKQAPGQGLKWMGWINTYTGEPTYTDDFKGRFAFSLDTSVSTAYLQISSLKADDTAVYFCARGGFGSSYWYFDVWGQGSLVTVSS VL: DIQLTQSPSSLSASVGDRVSITCKASQDVSIAVAWYQQKPGKAPKLLIYSASYRYTGVPDRFSGSGSGTDFTLTISSLQPEDFAVYYCQQHYITPLTFGAGTKVEIKR			0.0374 µg/mL	0.706 nM
